The results in this text go back to PMC6218473, “Recognition of host Clr-b by the inhibitory NKR-P1B receptor provides a basis for missing-self recognition” (Nature Communications, 2018).

B1: NKR-P1B tetramers (biotinylated NKR-P1B on streptavidin) [modified: biotin on the BirA tag; biotin on the BirA tag] [mouse] / Clr-b on transfected HEK293T cells [mouse] (parent)
chain 1: SAKLECPQDWLSHRDKCFHVSQVSNTWKECRIDCDKKGATLLLIQDQEELRFLLDSIKEKYNSFWIGLSYTLTDMNWKWINGTAFNSDVLKITGVTENGSCAAISGEKVTSEGCSSDNRWICQKELN
chain 2: MCVTKASLPMLSPTGSPQEVEVGKILQGKRHGTISPESCAKLYCYYGVIMVLTVAVIALSVALSATKTEQIPVNKTYAACPQNWIGVENKCFYFSEYPSNWTFAQAFCMAQEAQLARFDNQDELNFLMRYKANFDSWIGLHRESSEHPWKWTDNTEYNNTIPIRGEERFAYLNNNGISSTRIYSLRMWICSKLNSYSLHCQTPFFPS

Variants of B1 are the subject of this assay. Briefly: flow cytometry on cells (PE-tetramer staining). To be noted: with Clr-b on transfected HEK293T cells [mouse]; HEK293T cells stained 48 h after transfection with Clr-b pIRES2-EGFP; parent: 3.14e+03. A general note: Flow cytometry measures light scatter and fluorescence of single cells or particles in a stream.
For chain 1 SAKLECPQDWLSHRDKCFHVSQVSNTWKECRIDCDKKGATLLLIQDQEELRFLLDSIKEKYNSFWIGLSYTLTDMNWKWINGTAFNSDVLKITGVTENGSCAAISGEKVTSAGCSSDNRWICQKELN [chain 1 E112A], the response was 269 MFI. In the case of chain 1 SAKLECPQDWLSHRDKCFHVSQVSATWKECRIDCDKKGATLLLIQDQEELRFLLDSIKEKYNSFWIGLSYTLTDMNWKWINGTAFNSDVLKITGVTENGSCAAISGEKVTSEGCSSDNRWICQKELN [chain 1 N25A] it was 5680 MFI. In the case of chain 1 SAKLECPQDWLSHRDKCFHVSQVSNTWKECRIDCDKKGATLLLIQDQEELRFLLDSIKEKANSFWIGLSYTLTDMNWKWINGTAFNSDVLKITGVTENGSCAAISGEKVTSEGCSSDNRWICQKELN [chain 1 Y61A] it was 346 MFI; in that of chain 1 SAKLECPQDWLSHRDKCFHVSQVSNTWKECRIDCDKKGATLLLIQDQEELRFLLDSIKEKYNSFWIGLSYTLTAMNWKWINGTAFNSDVLKITGVTENGSCAAISGEKVTSEGCSSDNRWICQKELN [chain 1 D74A], 212 MFI; in that of chain 1 SAKLECPQDWLSHRDKCFHVSQVSNTWKECRIDCDKKGATLLLIQDQEELRFLLDSIKEKYNSFWIGLSYTLTDMNWKWINGTAFNSDVLKITGVTENGACAAISGEKVTSEGCSSDNRWICQKELN [chain 1 S100A], 217 MFI.

Turning to chain 1 SAKLECPQDWLSHRDKCFHVSQVSNTWKECRIDCDKKGATLLLIQDQEELRFLLDSIKEKYNSFWIGLSYTLTDMNWKWINGTAFNSDVLKITGVTENGSCAAISGEKVTSEGCASDNRWICQKELN [chain 1 S115A], the response came out at 178 MFI. In the case of chain 1 SAKLECPQDWLSHRDKCFHVSQVSNTWKECRIDCDKKGATLLLIQDQEELRFLLDSIKEKYNSFWIGLSYTLTDMNWKWINGTAFNSDVLKITGVAENGSCAAISGEKVTSEGCSSDNRWICQKELN [chain 1 T96A] it was 208 MFI; in that of chain 1 SAKLECPQDWLSHRDKCFHVSQVSNTWKECRIDCDKKGATLLLIQDQEELRFLLDSIKEKYNSFWIGLSYTLTDMNWKWINGTAFNSDVLKITGVTENGSCAAISGEKVTSEGCSSDARWICQKELN [chain 1 N118A], 213 MFI; in that of chain 1 SAKLECPQDWLSHRDKCFHVSQVSNTWKECRIDCDKKGATLLLIQDQEELRFLLDSIKEKYNSFWIGLSYTLTDMNWKWINGTAFNSDVLKITGATENGSCAAISGEKVTSEGCSSDNRWICQKELN [chain 1 V95A], 5900 MFI. Turning to chain 1 SAKLECPQDWLSHRDKCFHVSQVSNTWKECRIDCDKKGATLLLIQDQEELRFLLDSIKEKYNSFWIGLSYTLTDMNWKWINGTAFNSDVLKITGVTENGSCAAISGEKVTSEGCSSDNAWICQKELN [chain 1 R119A], the response came to 238 MFI. Turning to chain 1 SAKLECPQDWLSHRDKCFHVSQVSNTWKECRIDCDKKGATLLLIQDQEELRFLLDSIKEKYNSFWIGLSYTLTDMNWKWINGTAFNSDVLKITGVTENGSCAAISGEKVTSEGCSSANRWICQKELN [chain 1 D117A], the response was determined as 232 MFI. In the case of chain 1 SAKLECPQDWLSHRDKCFHVSQVSNTWKECRIDCDKKGATLLLIQDQEELRFLLDSIKEKYNSFWIGLSYTLTDMNWKWINGTAFNSDVLKITGVTENGSCAAISGEKVTSEGCSRDNRWICQKELN [chain 1 S116R] it was 198 MFI; in that of chain 1 SAKLECPQDWLSHRDKCFHVSQVSNTWKECRIDCDKKGATLLLIQDQEELRFLLDSIKEKYNSFWIGLSYTLTDMNWKWINGTAFNSDVLKITGVTENGSCAAISGEKVTSEGCSADNRWICQKELN [chain 1 S116A], 211 MFI; in that of chain 1 SAKLECPQDWLSHRDKCFHVSQVSNTWKECRIDCDKKGATLLLIQDQEELRFLLDSIKEKYNSFWIGLSYTLTDMNWKWINGTAFNSDVLKITGVTENGSCAAISGEKVTAEGCSSDNRWICQKELN [chain 1 S111A], 229 MFI. In the case of chain 1 SAKLECPQDWLSHRDKCFHVSQVSNTWKECRIDCDKKGATLLLIQDQEELRFLLDSIKEKYASFWIGLSYTLTDMNWKWINGTAFNSDVLKITGVTENGSCAAISGEKVTSEGCSSDNRWICQKELN [chain 1 N62A], the response stood at 4880 MFI.
